For 2 molecules, 90 nM mfBCMA.mmh Bind (RU) results are on record in patent US20220306758A1.

The assay deals with monkey BCMA-MMH (monkey BCMA with C-terminal myc-myc-hexahistidine tag) (monkey). As to the kind of experiment: SPR, Biacore, mAb captured by anti-hFc, 25 C.
Sequence of monkey BCMA-MMH (monkey BCMA with C-terminal myc-myc-hexahistidine tag) (monkey) (chain, as listed by the source limits assumed): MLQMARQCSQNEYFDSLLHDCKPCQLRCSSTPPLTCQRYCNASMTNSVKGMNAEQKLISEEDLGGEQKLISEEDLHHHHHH

B1: mAb16732 (REGN4514) (antibody, V domains shown)
VH: EVQLVESGGGLVQPGRSLRLSCAASGFTFDDYAMHWVRQAPGKGLEWVSGISWNSGNMGYADSVKGRFTISRDNAKNSLFLQMHSLRAEDTAFYYCAKVRLTAFDFWGQGTLVTVSS
VL: DIQMTQSPSSLSASVGDRVTITCRTSQSIGNYLNWFQQKPGKAPKLLIYTASSLQNGVPSRFTGSGSGTDFTLTISSLQPEDFVIYYCQQSFSTPYTFGQGTKLEIK
In turn, B1 yielded a 90 nM mfBCMA.mmh Bind (RU) of 1.1 RU.

B2: mAb16747 (REGN4515) (antibody, V domains shown)
VH: QVQLVESGGGLVKPGGSLRLSCAASGFTFSDYYISWIRQAPGKGLEWVSYISSSGSSIKYADSVKGRFTISRDNAKNSLYLQMNSLRAEDTAVYYCAREGGNYGMDVWGQGTTVTVSS
VL: DIQMTQSPSSVSASVGDRVTITCRASQGINNWLVWYQQKPGKAPKLLIYAATSLQSGVPSRFSGSGSGTDFTLTISSLQPEDFATYYCQQANSFPPTFGQGTKLEIK
The molecule B2 had a 90 nM mfBCMA.mmh Bind (RU) of 1.9 RU.
